Assay results: IntAct's records for PubMed 33053355

B1: GRB10-interacting GYF protein 2 (Homo sapiens), Q6Y7W6-1 (parent)
chain: MAAETQTLNFGPEWLRALSSGGSITSPPLSPALPKYKLADYRYGREEMLALFLKDNKIPSDLLDKEFLPILQEEPLPPLALVPFTEEEQRNFSMSVNSAAVLRLTGRGGGGTVVGAPRGRSSSRGRGRGRGECGFYQRSFDEVEGVFGRGGGREMHRSQSWEERGDRRFEKPGRKDVGRPNFEEGGPTSVGRKHEFIRSESENWRIFREEQNGEDEDGGWRLAGSRRDGERWRPHSPDGPRSAGWREHMERRRRFEFDFRDRDDERGYRRVRSGSGSIDDDRDSLPEWCLEDAEEEMGTFDSSGAFLSLKKVQKEPIPEEQEMDFRPVDEGEECSDSEGSHNEEAKEPDKTNKKEGEKTDRVGVEASEETPQTSSSSARPGTPSDHQSQEASQFERKDEPKTEQTEKAEEETRMENSLPAKVPSRGDEMVADVQQPLSQIPSDTASPLLILPPPVPNPSPTLRPVETPVVGAPGMGSVSTEPDDEEGLKHLEQQAEKMVAYLQDSALDDERLASKLQEHRAKGVSIPLMHEAMQKWYYKDPQGEIQGPFNNQEMAEWFQAGYFTMSLLVKRACDESFQPLGDIMKMWGRVPFSPGPAPPPHMGELDQERLTRQQELTALYQMQHLQYQQFLIQQQYAQVLAQQQKAALSSQQQQQLALLLQQFQTLKMRISDQNIIPSVTRSVSVPDTGSIWELQPTASQPTVWEGGSVWDLPLDTTTPGPALEQLQQLEKAKAAKLEQERREAEMRAKREEEERKRQEELRRQQEEILRRQQEEERKRREEEELARRKQEEALRRQREQEIALRRQREEEERQQQEEALRRLEERRREEEERRKQEELLRKQEEEAAKWAREEEEAQRRLEENRLRMEEEAARLRHEEEERKRKELEVQRQKELMRQRQQQQEALRRLQQQQQQQQLAQMKLPSSSTWGQQSNTTACQSQATLSLAEIQKLEEERERQLREEQRRQQRELMKALQQQQQQQQQKLSGWGNVSKPSGTTKSLLEIQQEEARQMQKQQQQQQQHQQPNRARNNTHSNLHTSIGNSVWGSINTGPPNQWASDLVSSIWSNADTKNSNMGFWDDAVKEVGPRNSTNKNKNNASLSKSVGVSNRQNKKVEEEEKLLKLFQGVNKAQDGFTQWCEQMLHALNTANNLDVPTFVSFLKEVESPYEVHDYIRAYLGDTSEAKEFAKQFLERRAKQKANQQRQQQQLPQQQQQQPPQQPPQQPQQQDSVWGMNHSTLHSVFQTNQSNNQQSNFEAVQSGKKKKKQKMVRADPSLLGFSVNASSERLNMGEIETLDDY
B2: GRB10-interacting GYF protein 2 (Homo sapiens), Q6Y7W6-1 (parent)
chain: B1 chain
partner: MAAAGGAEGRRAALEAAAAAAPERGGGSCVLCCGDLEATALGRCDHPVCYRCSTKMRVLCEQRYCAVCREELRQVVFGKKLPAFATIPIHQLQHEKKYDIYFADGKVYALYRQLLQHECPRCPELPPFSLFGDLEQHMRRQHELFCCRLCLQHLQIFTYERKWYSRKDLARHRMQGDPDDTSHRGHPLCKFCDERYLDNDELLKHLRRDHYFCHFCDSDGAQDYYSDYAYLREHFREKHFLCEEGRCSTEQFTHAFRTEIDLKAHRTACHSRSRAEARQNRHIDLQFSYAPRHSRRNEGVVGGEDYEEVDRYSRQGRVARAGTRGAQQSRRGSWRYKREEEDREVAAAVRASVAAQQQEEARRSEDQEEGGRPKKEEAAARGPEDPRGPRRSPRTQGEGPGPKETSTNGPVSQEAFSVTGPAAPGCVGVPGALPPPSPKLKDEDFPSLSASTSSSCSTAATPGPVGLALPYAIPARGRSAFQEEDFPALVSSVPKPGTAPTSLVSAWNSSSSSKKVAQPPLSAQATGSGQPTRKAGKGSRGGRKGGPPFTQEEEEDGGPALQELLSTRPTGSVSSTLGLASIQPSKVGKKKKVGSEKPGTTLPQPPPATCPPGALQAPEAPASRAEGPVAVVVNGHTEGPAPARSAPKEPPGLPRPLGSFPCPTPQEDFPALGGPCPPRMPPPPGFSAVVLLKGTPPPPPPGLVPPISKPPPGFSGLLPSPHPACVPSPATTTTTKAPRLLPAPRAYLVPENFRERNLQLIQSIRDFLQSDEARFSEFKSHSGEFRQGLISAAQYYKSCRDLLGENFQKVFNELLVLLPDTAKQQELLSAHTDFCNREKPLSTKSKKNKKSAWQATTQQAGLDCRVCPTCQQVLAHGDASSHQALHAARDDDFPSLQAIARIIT
B3: GRB10-interacting GYF protein 1 (Homo sapiens), O75420 (parent)
chain: MAAETLNFGPEWLRALSGGGSVASPPPSPAMPKYKLADYRYGREEMLALYVKENKVPEELQDKEFAAVLQDEPLQPLALEPLTEEEQRNFSLSVNSVAVLRLMGKGAGPPLAGTSRGRGSTRSRGRGRGDSCFYQRSIEEGDGAFGRSPREIQRSQSWDDRGERRFEKSARRDGARCGFEEGGAGPRKEHARSDSENWRSLREEQEEEEEGSWRLGAGPRRDGDRWRSASPDGGPRSAGWREHGERRRKFEFDLRGDRGGCGEEEGRGGGGSSHLRRCRAPEGFEEDKDGLPEWCLDDEDEEMGTFDASGAFLPLKKGPKEPIPEEQELDFQGLEEEEEPSEGLEEEGPEAGGKELTPLPPQEEKSSSPSPLPTLGPLWGTNGDGDETAEKEPPAAEDDIRGIQLSPGVGSSAGPPGDLEDDEGLKHLQQEAEKLVASLQDSSLEEEQFTAAMQTQGLRHSAAATALPLSHGAARKWFYKDPQGEIQGPFTTQEMAEWFQAGYFSMSLLVKRGCDEGFQPLGEVIKMWGRVPFAPGPSPPPLLGNMDQERLKKQQELAAAALYQQLQHQQFLQLVSSRQLPQCALREKAALGDLTPPPPPPPQQQQQQLTAFLQQLQALKPPRGGDQNLLPTMSRSLSVPDSGRLWDVHTSASSQSGGEASLWDIPINSSTQGPILEQLQLQHKFQERREVELRAKREEEERKRREEKRRQQQQEEQKRRQEEEELFRRKHVRQQELLLKLLQQQQAVPVPPAPSSPPPLWAGLAKQGLSMKTLLELQLEGERQLHKQPPPREPARAQAPNHRVQLGGLGTAPLNQWVSEAGPLWGGPDKSGGGSSGLGLWEDTPKSGGSLVRGLGLKNSRSSPSLSDSYSHLSGRPIRKKTEEEEKLLKLLQGIPRPQDGFTQWCEQMLHTLSATGSLDVPMAVAILKEVESPYDVHDYIRSCLGDTLEAKEFAKQFLERRAKQKASQQRQQQQEAWLSSASLQTAFQANHSTKLGPGEGSKAKRRALMLHSDPSILGYSLHGSSGEIESVDDY
partner: B2 partner

Variants of: B1
Conditions: with EIF4E2, O60573-1
Sequence of EIF4E2, O60573-1 (O60573 whole entry): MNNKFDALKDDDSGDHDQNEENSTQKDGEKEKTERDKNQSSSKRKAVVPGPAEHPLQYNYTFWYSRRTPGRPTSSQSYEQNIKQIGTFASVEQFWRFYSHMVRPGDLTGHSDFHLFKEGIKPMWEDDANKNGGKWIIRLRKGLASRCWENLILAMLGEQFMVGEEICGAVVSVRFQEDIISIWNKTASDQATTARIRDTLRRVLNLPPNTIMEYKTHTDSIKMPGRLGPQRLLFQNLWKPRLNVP

Row | Variant | effect of a mutation on the interaction
1 | Y538A;F549A;W557A;F563A | with no effect
2 | W288A;F300A;F306A | with no effect
3 | Y41A;Y43A;M48A;L49A | disrupting interaction strength

Variants of: B1
Conditions: with rl22l_human RPL22L1, Q6P5R6

Row | Variant | effect of a mutation on the interaction
4 | Y538A;F549A;W557A;F563A | with no effect

Variants of: B2
Conditions: with zn598_human ZNF598, Q86UK7

Row | Variant | effect of a mutation on the interaction
5 | Y538A;F549A;W557A;F563A | disrupting interaction strength

Variants of: B3
Conditions: with zn598_human ZNF598, Q86UK7

Row | Variant | effect of a mutation on the interaction
6 | Y479A;F490A;W498A;F504A | disrupting interaction strength
